Drawing on article PMC3433420, this text covers Kd and apparent Kd (screen) for 18 substances.

Values joined by “and” are separate entries in the source; they are usually repeats but may differ in a detail not shown here. Equal entries are not always repeated. Where two headings read alike, the source gives them in different places.

Experiment [1] concerns the target PIK3R3 C-terminal SH2 domain (human). As to the kind of experiment: SPR; Biacore 3000; 6X His SH2 proteins held on a Ni-NTA chip, dye-free peptides in solution, equilibrium. For orientation: In SPR one partner is held on a chip, and binding of the other changes the refractive index at the surface.
The target of experiment [2] is PLCG1 C-terminal SH2 domain (human). The description is as above.
Experiment [3] has as its target PIK3R1 N-terminal SH2 domain (human). The experiment is described as above.
A further experiment deals with BLK SH2 domain (human) (UniProt P51451). In words: peptide or protein array; SH2/PTB proteins spotted on aldehyde slides, rhodamine peptide titrated in buffer B (20 mM HEPES, 100 mM KCl, 0.1% Tween-20, 5 mM DTT, pH 7.8), 1 h at room temperature; replicate assays.
Chain of BLK SH2 domain (human) (P51451 124-220): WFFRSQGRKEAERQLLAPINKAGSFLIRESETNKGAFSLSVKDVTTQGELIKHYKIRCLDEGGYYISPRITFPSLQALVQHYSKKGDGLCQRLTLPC
Experiment [4] has as its target SH3BP2 SH2 domain (human) (UniProt P78314). The description is as above.
Experiment [5] has as its target SYK tandem SH2 domains (human). The experiment is described as above.
A further experiment deals with YES1 SH2 domain (human) (UniProt P07947). The description is as above.
Chain of YES1 SH2 domain (human) (P07947 158-255): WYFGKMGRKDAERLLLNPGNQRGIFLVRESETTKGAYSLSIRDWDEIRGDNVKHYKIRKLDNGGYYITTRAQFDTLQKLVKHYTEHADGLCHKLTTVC
The target in experiment [6] is ErbB1 pY801 phosphopeptide, rhodamine-labelled (human). In words: fluorescence polarisation; saturation binding in solution: rhodamine peptide fixed at 10 nM, protein titrated 0.002-10 uM, 20 min at room temperature; assay buffer 20 mM HEPES, 100 mM KCl, 0.1% Tween-20, 5 mM DTT, pH 7.8; apparent KD. (Fluorescence polarisation rises when a labelled molecule tumbles more slowly, as on binding a larger partner.)

The target of experiment [7] is ErbB2 pY685 phosphopeptide, rhodamine-labelled (human). The experiment is described as above.
Experiment [8] has as its target MET pY1313 phosphopeptide, rhodamine-labelled. The description is as above.
In experiment [9] the target is ErbB1 Y900 non-phosphorylated peptide, rhodamine-labelled (human). Described as above.
Experiment [10] has as its target SRC (Homo sapiens) (UniProt P12931). The note with it: cited from earlier work.
Experiment [11] concerns the target YES1 (Homo sapiens) (UniProt P07947). The note with it: cited from earlier work.
Experiment [12] has as its target ABL2 (Homo sapiens) (UniProt P42684). The note with it: cited from earlier work.
Experiment [13] concerns the target SHC1-PTB (Homo sapiens) (UniProt P29353). The note with it: cited from earlier work.
Experiment [14] concerns the target SYK-NC (Homo sapiens) (UniProt P43405). Conditions: cited from earlier work.
Experiment [15] addresses ABL2 (Homo sapiens) (UniProt P42684). Conditions: cited from earlier work. This is another data set of the same source.
The target in a further experiment is PLCG1-NC (Homo sapiens) (UniProt P19174). The note with it: cited from earlier work.
Chain of PLCG1-NC (Homo sapiens) (P19174 545-761): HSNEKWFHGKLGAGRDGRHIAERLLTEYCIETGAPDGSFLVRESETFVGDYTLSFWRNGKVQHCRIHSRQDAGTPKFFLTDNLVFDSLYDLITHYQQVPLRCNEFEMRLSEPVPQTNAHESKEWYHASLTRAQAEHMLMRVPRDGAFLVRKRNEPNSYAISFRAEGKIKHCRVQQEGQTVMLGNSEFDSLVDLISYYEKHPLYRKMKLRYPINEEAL
In the next experiment the target is SH2B3 (Homo sapiens) (UniProt Q9UQQ2). Conditions: cited from earlier work.
Chain of SH2B3 (Homo sapiens) (Q9UQQ2 359-467): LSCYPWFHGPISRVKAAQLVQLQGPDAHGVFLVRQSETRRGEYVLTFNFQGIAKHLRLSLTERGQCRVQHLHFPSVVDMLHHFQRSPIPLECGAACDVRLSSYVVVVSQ
In the next experiment the target is PIK3R3-NC (Homo sapiens) (UniProt Q92569). Conditions: cited from earlier work.
Experiment [16] concerns the target RASA1-N (Homo sapiens) (UniProt P20936). Conditions: cited from earlier work.
Another experiment addresses SLA2 (Homo sapiens) (UniProt Q9H6Q3). Conditions: cited from earlier work.
A further experiment has as its target PIK3R2-NC (Homo sapiens) (UniProt O00459). Conditions: cited from earlier work.
For experiment [17], the target named is SHC1-PTB (Homo sapiens) (UniProt P29353). The note with it: cited from earlier work. The source holds these as a separate data set.
Chain of SHC1-PTB (Homo sapiens) (P29353 483-583): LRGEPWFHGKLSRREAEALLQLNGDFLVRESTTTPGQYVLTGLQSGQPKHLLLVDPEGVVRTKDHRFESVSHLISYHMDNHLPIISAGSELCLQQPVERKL
The target of the next experiment is VAV2 (Homo sapiens) (UniProt P52735). The note with it: cited from earlier work.
Chain of VAV2 (Homo sapiens) (P52735 668-772): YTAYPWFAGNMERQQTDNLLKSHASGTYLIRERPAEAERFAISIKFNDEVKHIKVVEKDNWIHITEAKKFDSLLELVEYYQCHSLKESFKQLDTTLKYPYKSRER
The target of experiment [18] is SYK-NC (Homo sapiens) (UniProt P43405). The note with it: cited from earlier work. This is another data set of the same source.
Experiment [19] addresses ABL2 (Homo sapiens) (UniProt P42684). Conditions: cited from earlier work. This is another data set of the same source.
For experiment [20], the target named is CRK (Homo sapiens) (UniProt P46108). The note with it: cited from earlier work.
Chain of CRK (Homo sapiens) (P46108 8-123): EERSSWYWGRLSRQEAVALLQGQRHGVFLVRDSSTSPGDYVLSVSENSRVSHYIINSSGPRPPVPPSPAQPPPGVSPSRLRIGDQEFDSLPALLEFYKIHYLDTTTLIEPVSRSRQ
In experiment [21] the target is RASA1-N (Homo sapiens) (UniProt P20936). The note with it: cited from earlier work. The source holds these as a separate data set.
Chain of RASA1-N (Homo sapiens) (P20936 176-446): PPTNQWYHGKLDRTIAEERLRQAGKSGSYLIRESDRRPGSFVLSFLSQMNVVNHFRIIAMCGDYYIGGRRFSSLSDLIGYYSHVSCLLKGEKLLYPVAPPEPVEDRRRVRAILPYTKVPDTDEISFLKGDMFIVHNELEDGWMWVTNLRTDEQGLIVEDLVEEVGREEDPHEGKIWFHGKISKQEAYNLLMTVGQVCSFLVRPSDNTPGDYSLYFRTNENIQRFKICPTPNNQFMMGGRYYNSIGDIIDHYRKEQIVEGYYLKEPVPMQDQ
The target in experiment [22] is CRKL (Homo sapiens) (UniProt P46109). Conditions: cited from earlier work.
Chain of CRKL (Homo sapiens) (P46109 9-107): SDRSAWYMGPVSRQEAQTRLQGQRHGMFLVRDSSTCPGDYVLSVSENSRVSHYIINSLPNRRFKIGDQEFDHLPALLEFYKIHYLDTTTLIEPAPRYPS
A further experiment has as its target PLCG2-NC (Homo sapiens) (UniProt P16885). Conditions: cited from earlier work.
Experiment [23] addresses SYK-NC (Homo sapiens) (UniProt P43405). Conditions: cited from earlier work. This is another data set of the same source.
The target of experiment [24] is ABL2 (Homo sapiens) (UniProt P42684). Conditions: cited from earlier work. The source holds these as a separate data set.
Chain of ABL2 (Homo sapiens) (P42684 168-268): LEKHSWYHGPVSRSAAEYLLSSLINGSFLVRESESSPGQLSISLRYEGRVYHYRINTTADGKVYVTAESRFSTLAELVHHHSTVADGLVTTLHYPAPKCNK
Experiment [25] shares this target. The note with it: cited from earlier work. The source holds these as a separate data set.
The target in experiment [26] is CRK (Homo sapiens) (UniProt P46108). Conditions: cited from earlier work. This is another data set of the same source.
Experiment [27] deals with RASA1-N (Homo sapiens) (UniProt P20936). Conditions: cited from earlier work. This is another data set of the same source.
Experiment [28] addresses YES1 (Homo sapiens) (UniProt P07947). Conditions: cited from earlier work. The source holds these as a separate data set.
The target of another experiment is BMX (Homo sapiens) (UniProt P51813). Conditions: cited from earlier work.
Chain of BMX (Homo sapiens) (P51813 291-397): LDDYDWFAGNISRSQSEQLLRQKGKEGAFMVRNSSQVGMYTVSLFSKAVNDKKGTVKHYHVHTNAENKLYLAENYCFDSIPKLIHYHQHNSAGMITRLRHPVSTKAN
The target of another experiment is SHB (Homo sapiens) (UniProt Q15464). Conditions: cited from earlier work.
Chain of SHB (Homo sapiens) (Q15464 405-509): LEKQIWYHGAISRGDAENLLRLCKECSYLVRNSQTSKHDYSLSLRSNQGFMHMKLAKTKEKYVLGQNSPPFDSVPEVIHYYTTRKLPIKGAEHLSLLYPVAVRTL
Experiment [29] addresses CRKL (Homo sapiens) (UniProt P46109). The note with it: cited from earlier work. This is another data set of the same source.
The target in another experiment is TNS1 (Homo sapiens) (UniProt Q9HBL0). Conditions: cited from earlier work.
Chain of TNS1 (Homo sapiens) (Q9HBL0 1562-1681): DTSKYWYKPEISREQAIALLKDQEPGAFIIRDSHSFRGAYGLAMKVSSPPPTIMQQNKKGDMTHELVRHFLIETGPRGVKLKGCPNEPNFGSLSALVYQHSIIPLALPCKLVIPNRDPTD
Experiment [30] deals with ABL2 (Homo sapiens) (UniProt P42684). The note with it: cited from earlier work. This is another data set of the same source.
For experiment [31], the target named is CRKL (Homo sapiens) (UniProt P46109). The note with it: cited from earlier work. The source holds these as a separate data set.
The target in experiment [32] is SRC (Homo sapiens) (UniProt P12931). Conditions: cited from earlier work. The source holds these as a separate data set.
In experiment [33] the target is SYK-N (Homo sapiens) (UniProt P43405). Conditions: cited from earlier work.
Experiment [34] has the same target. The note with it: cited from earlier work. This is another data set of the same source.

Chain of SH3BP2 SH2 domain (human) (P78314 457-555): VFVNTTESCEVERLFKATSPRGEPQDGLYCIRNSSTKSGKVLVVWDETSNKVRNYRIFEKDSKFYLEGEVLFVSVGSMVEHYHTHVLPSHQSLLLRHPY
Chain of YES1 (Homo sapiens) (P07947 153-260): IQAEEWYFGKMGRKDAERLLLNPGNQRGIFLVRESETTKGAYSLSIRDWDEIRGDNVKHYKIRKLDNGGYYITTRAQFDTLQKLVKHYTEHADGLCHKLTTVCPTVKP
Chain of PLCG2-NC (Homo sapiens) (P16885 527-740): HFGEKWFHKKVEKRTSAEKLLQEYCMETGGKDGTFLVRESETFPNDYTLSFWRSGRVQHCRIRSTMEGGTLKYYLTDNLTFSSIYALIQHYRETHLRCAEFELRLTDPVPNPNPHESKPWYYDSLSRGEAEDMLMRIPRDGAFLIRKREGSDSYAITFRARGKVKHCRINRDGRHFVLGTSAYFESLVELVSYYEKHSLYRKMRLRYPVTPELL
Chain of PIK3R2-NC (Homo sapiens) (O00459 325-721): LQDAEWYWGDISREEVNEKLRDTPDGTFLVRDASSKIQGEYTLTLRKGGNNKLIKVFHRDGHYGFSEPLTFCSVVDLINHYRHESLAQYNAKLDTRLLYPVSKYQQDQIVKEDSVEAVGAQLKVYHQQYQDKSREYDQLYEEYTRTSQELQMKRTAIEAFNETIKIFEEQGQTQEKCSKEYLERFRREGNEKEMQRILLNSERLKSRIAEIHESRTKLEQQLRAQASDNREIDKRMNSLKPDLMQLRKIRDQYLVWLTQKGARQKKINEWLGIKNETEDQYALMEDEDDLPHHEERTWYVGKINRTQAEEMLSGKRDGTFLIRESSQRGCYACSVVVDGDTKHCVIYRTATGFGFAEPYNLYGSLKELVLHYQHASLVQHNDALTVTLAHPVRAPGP
Chain of SLA2 (Homo sapiens) (Q9H6Q3 89-196): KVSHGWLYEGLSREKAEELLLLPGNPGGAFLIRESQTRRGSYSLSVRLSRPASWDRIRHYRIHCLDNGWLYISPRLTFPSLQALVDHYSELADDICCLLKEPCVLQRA

With ErbB1 pY900 phosphopeptide, dye-free, the Kd was 1470 nM in experiment [1] and 10.9 µM in experiment [2].

ErbB1 pY978 phosphopeptide, dye-free showed a Kd in experiment [2] of 0.43 µM.

ErbB2 pY685 phosphopeptide, dye-free: the Kd in experiment [3] was 13.4 µM; in [1], 1520 nM.

In experiment [2], ErbB4 pY833 phosphopeptide, dye-free yielded a Kd of 3.46 µM.

Take “ErbB4 pY1301 phosphopeptide (18-mer), rhodamine-labelled, for protein microarrays”: the Kd in the experiment with BLK SH2 domain (human) was 1180 nM and 1600 nM; in experiment [4] it was 1180 nM and 1610 nM; in experiment [5], 801 nM and 1170 nM; with YES1 SH2 domain (human), 1.37 µM and 4.86 µM.

Consider “PIK3R1 N-terminal SH2 domain (domain or fragment)”, for which the Kd in [6] turned out to be 6.96 µM; in [7], 2510 nM; in experiment [8], 256 nM.

For “PIK3R2 tandem SH2 domains (from UniProt O00459 1-728) (domain or fragment)”, in experiment [9], the Kd was 6.93 µM.

Take “SHC2 PTB domain (from UniProt P98077 1-582) (domain or fragment)”: the Kd in [9] is 5.42 µM.

On to …pYKGLWIPEd, for which the apparent Kd (screen) with SRC (Homo sapiens) [10] was 579 nM; in the experiment with YES1 (Homo sapiens) [11], 540 nM.

For …pYLGLDVPV, the apparent Kd (screen) with ABL2 (Homo sapiens) [12] was 210 nM; with SHC1-PTB (Homo sapiens) [13] it was 277 nM.

As for …pYLSEFSLK, the apparent Kd (screen) with SYK-NC (Homo sapiens) [14] was 1670 nM; in the experiment with ABL2 (Homo sapiens) [15], 221 nM; with PLCG1-NC (Homo sapiens) it was 2000 nM; with SH2B3 (Homo sapiens) it was 2000 nM; in the experiment with PIK3R3-NC (Homo sapiens), 2000 nM; with RASA1-N (Homo sapiens) [16], 709 nM. The apparent Kd (screen) was 2000 nM with SLA2 (Homo sapiens), 2000 nM in the experiment with PIK3R2-NC (Homo sapiens), 24 nM in the experiment with SHC1-PTB (Homo sapiens) [17] and 2000 nM in the experiment with VAV2 (Homo sapiens).

Take …pYMTPMRDKd: the apparent Kd (screen) in the experiment with SYK-NC (Homo sapiens) [18] was 330 nM; in the experiment with ABL2 (Homo sapiens) [19], 18 nM; in the experiment with CRK (Homo sapiens) [20], 29 nM; with RASA1-N (Homo sapiens) [21], 27 nM; with CRKL (Homo sapiens) [22] it was 65 nM.

As for …pYNADGGKMd, in the experiment with PLCG2-NC (Homo sapiens), the apparent Kd (screen) is 1140 nM.

Consider …pYQDPHSTAd, for which the apparent Kd (screen) with SYK-NC (Homo sapiens) [23] was 981 nM; with ABL2 (Homo sapiens) [24] it was 74 nM; in the experiment with ABL2 (Homo sapiens) [25], 133 nM; with CRK (Homo sapiens) [26] it was 1230 nM; with RASA1-N (Homo sapiens) [27], 1320 nM; with YES1 (Homo sapiens) [28], 378 nM. The apparent Kd (screen) with BMX (Homo sapiens) was 1070 nM; with SHB (Homo sapiens) it was 991 nM; with CRKL (Homo sapiens) [29], 2000 nM; with TNS1 (Homo sapiens), 1280 nM.

With …pYRAPTSTId, the figures for the apparent Kd (screen) with ABL2 (Homo sapiens) [30] and in the experiment with CRKL (Homo sapiens) [31] were 1230 nM and 1240 nM, respectively.

As for …pYSADPTVFd, the apparent Kd (screen) in the experiment with SRC (Homo sapiens) [32] was 504 nM.

For …pYVNEPLYLd, the apparent Kd (screen) with SYK-N (Homo sapiens) [33] was 6 nM.

…pYVREHKDNd: the apparent Kd (screen) with SYK-N (Homo sapiens) [34] is 559 nM.
